Assay: protein stability index of a GFP-peptide fusion (GPS, HEK-293T) (PSI 1-6); higher = more stable
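Also: lentivirally expressed fusions sorted by FACS into six bins by GFP to DsRed ratio, PSI derived from sequencing read proportions per bin multiplied by bin number.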

VHVIGVEEPSVGASMLFDIREST
protein stability index (parent: IOH28719_96, c terminus: native): 2.07

YVDVVFANRPDPNTPMEETVRAMT
protein stability index (parent: IOH29625_26, c terminus: a fixed tail appended): 1.96

TVHEVDIFRCFCPVFLHSQMLWEL [FAM116A WT]
protein stability index (parent: IOH27644_45, c terminus: a fixed tail appended): 3

RIHTGERPYMCKECGKAFSQNSSL
protein stability index (parent: IOH28719_47, c terminus: a fixed tail appended): 2.6

FQEYDTDCEVFRQRFRQFQYREAA
protein stability index (parent: IOH29221_4, c terminus: a fixed tail appended): 2.58

RLRGLLRVLRGRPGAGSRRRGRMA [FBXO33 WT]
protein stability index (parent: IOH28939_7, c terminus: a fixed tail appended): 2.16

PGIDRPGMLCSFRIPGAWSCAWSL
protein stability index (parent: IOH28737_29, c terminus: a fixed tail appended): 2.84

HTGERPYECTVCKKRFTRRSHLIG
protein stability index (parent: IOH29221_63, c terminus: a fixed tail appended): 2.07

KPYTCSVCGKSFSRTTCLFLHLRT
protein stability index (parent: IOH28719_62, c terminus: a fixed tail appended): 2.03

PCAGSTSLSHSPGCSSTQGNGRPG
protein stability index (parent: IOH28989_16, c terminus: a fixed tail appended): 3.04

RDAIEALCRRLNTLNKCAVMKLEI
protein stability index (parent: IOH28890_83, c terminus: a fixed tail appended): 2.68

DSHILLCLMGLAETPGCATLLPAS
protein stability index (parent: IOH28737_24, c terminus: a fixed tail appended): 2.86

SSIIHEIDSILGNKPYSKKDYRS
protein stability index (parent: IOH29625_62, c terminus: native): 2.88

KRSWEEHVTHWMGQPFNSDDRNTA
protein stability index (parent: IOH28890_2, c terminus: a fixed tail appended): 2.65

HKKKSPGEKPHRCPQCGKCFARKS
protein stability index (parent: IOH29221_53, c terminus: a fixed tail appended): 3.46

HVTHWMGQPFNSDDRNTACHHGLV
protein stability index (parent: IOH28890_3, c terminus: a fixed tail appended): 2.14

TTKCVRQYEGHVNEYAYLPLHVHE
protein stability index (parent: IOH28737_51, c terminus: a fixed tail appended): 2.65

KEMARKVIEHCSNFKEENMDTSR
protein stability index (parent: IOH29391_126, c terminus: native): 3.58

FHALVREIRRKEKEAVLAMEKKSK [RIT1 WT]
protein stability index (parent: IOH29584_30, c terminus: a fixed tail appended): 1.93

YINFRHLYKQRRRRYGQKKKKIH
protein stability index (parent: IOH29075_58, c terminus: native): 2.11

FGDSPKAEKRQIGDQEGPRPARST
protein stability index (parent: IOH27821_37, c terminus: a fixed tail appended): 4.98

AIQGISEKEKAEIEAKEACDWLRA
protein stability index (parent: IOH28890_74, c terminus: a fixed tail appended): 4.41

YHSPELTTPPGHGTLDNSKSMKPY [NEUROD6 WT]
protein stability index (parent: IOH27687_36, c terminus: a fixed tail appended): 2.22

RTHTGEKPYTCSVCGKSFSRTTCL
protein stability index (parent: IOH28719_61, c terminus: a fixed tail appended): 2.43

YPPPPPALPSSAPSGPPPPPPSVL [WASL WT]
protein stability index (parent: IOH28816_58, c terminus: a fixed tail appended): 4.3

NDDSADYQHFLQDCVDGLFKEVKE
protein stability index (parent: IOH28890_220, c terminus: a fixed tail appended): 2.66

VFGRGDNISDVSKFLEDDKWMEE [CROP WT]
protein stability index (parent: IOH29119_14, c terminus: native): 1.95

YSFYMLTCIDMDWKVLTWLRYTLW
protein stability index (parent: IOH29075_44, c terminus: a fixed tail appended): 2.31

YRHQRLHTGERPYECTVCKKRFTR
protein stability index (parent: IOH29221_62, c terminus: a fixed tail appended): 2.36

AEVVKIRDSFSNQNTETKDTKSR
protein stability index (parent: IOH28890_253, c terminus: native): 2.4

PTVDLNQVLNETRSQYEALVETNR
protein stability index (parent: IOH28032_44, c terminus: a fixed tail appended): 3.1

PILRLLPQGISPVSQHWATWALYN
protein stability index (parent: IOH29391_115, c terminus: a fixed tail appended): 3.03

FDGPEAWGVCEPQREEVEERMWAA
protein stability index (parent: IOH29391_108, c terminus: a fixed tail appended): 2.7

FHCIETLVTTGANVNETDDWGRTA [ANKRD44 WT]
protein stability index (parent: IOH28621_76, c terminus: a fixed tail appended): 1.99

LQRASILDMRRDHEEQLQRLKLLK
protein stability index (parent: IOH27821_117, c terminus: a fixed tail appended): 3.67

EPHKCPECGKRFLRSSDLYRHQRL
protein stability index (parent: IOH29221_59, c terminus: a fixed tail appended): 3.96

YQRPQDSEDMWGDEDFTFGAYQPT
protein stability index (parent: IOH27821_46, c terminus: a fixed tail appended): 2.9

TLHQRTHTEERPFKCNYCGKSFRQ
protein stability index (parent: IOH29221_76, c terminus: a fixed tail appended): 2.24

KISGGPRISYPLLHEWALREGEE [MAGEA6 WT]
protein stability index (parent: IOH28024_53, c terminus: native): 2.93

FVKALDDLHKMNHVTPPNVSLGAT [JUNB WT]
protein stability index (parent: IOH27814_24, c terminus: a fixed tail appended): 1.94

TLARMSRRTRGPVERAAAAAAAAA [C6orf223 WT]
protein stability index (parent: IOH28619_19, c terminus: a fixed tail appended): 2.35

SLGRHKRTHTGEKPYTCSVCGKSF
protein stability index (parent: IOH28719_60, c terminus: a fixed tail appended): 2.55

PMYFFLGNLSVLDVGCISVTVPSM [OR3A1 WT]
protein stability index (parent: IOH28412_11, c terminus: a fixed tail appended): 2.98

QLTGHQRIHSGEEPHKCPECGKRF
protein stability index (parent: IOH29221_57, c terminus: a fixed tail appended): 4.05

TGTSNTTAIKSIEFARKGSCFLIN [RBBP5 WT]
protein stability index (parent: IOH28957_33, c terminus: a fixed tail appended): 2.08

CTHCSKSFRQRAGLIMHQVTHFRG
protein stability index (parent: IOH29221_83, c terminus: a fixed tail appended): 2

RIHSGEEPHKCPECGKRFLRSSDL
protein stability index (parent: IOH29221_58, c terminus: a fixed tail appended): 3.27

YKVKERLGTLKNPPKKKMKLMSG
protein stability index (parent: IOH28989_68, c terminus: native): 1.99

YQSYFKTIEELQQKILCAKAENAR
protein stability index (parent: IOH28032_25, c terminus: a fixed tail appended): 1.83

QLQCSPAELQAELLHSQARLAELE
protein stability index (parent: IOH27821_96, c terminus: a fixed tail appended): 3.22

ISEYEKSLQFDEKCLSIMLAEWEA [RPAIN WT]
protein stability index (parent: IOH28888_19, c terminus: a fixed tail appended): 1.85

IPPYSRASLKGYQWLKDKILSEEG
protein stability index (parent: IOH29625_44, c terminus: a fixed tail appended): 1.84

HAPTIHFNYRYFEVEEADGNKQWW [CPOX WT]
protein stability index (parent: IOH27839_43, c terminus: a fixed tail appended): 2.33

Reference: the supplement of paper PMC10567573
